# Experimental data: article doi:10.1101/2020.12.03.410779 (bioRxiv, 2020)
# B1: PTHR_(586-593) cargo peptide (peptide)
# peptide: QEEWETVM
# Target: PDZ domain of mouse SNX27 (mouse, UniProt Q3UHD6 41-134)
# Test: ITC
binder,measurement,value
B1,Kd,700 nM
